Data: the Immune Epitope Database (IEDB)
Values belong to the sequence of their own block, whether it stands above or below them.

Legend:
[1] = target: HLA-B*27:05; experiment: IEDB peptide-MHC binding, purified MHC/direct/fluorescence; filed as Kd, often an IC50 or EC50 that approximates it; ≥ and ≤ were set here for values at or beyond the usual limits of such assays; settings: source organism: Escherichia coli O157:H7
[2] = target: HLA-A*03:01; experiment: as above
[3] = target: HLA-A*69:01; experiment: as above; settings: source organism: Escherichia coli O157:H7
[4] = target: HLA-C*06:02; experiment: as above
[5] = target: HLA-B*15:01; experiment: as above; settings: source organism: Escherichia coli O157:H7
[6] = target: HLA-B*44:02; experiment: as above; settings: source organism: Escherichia coli O157:H7
[7] = target: HLA-A*31:01; experiment: as above; settings: source organism: Escherichia coli O157:H7
[8] = target: HLA-B*58:01; experiment: as above; settings: source organism: Escherichia coli O157:H7
[9] = target: HLA-B*40:01; experiment: as above
[10] = target: HLA-B*07:02; experiment: as above; settings: source organism: Escherichia coli O157:H7
[11] = target: HLA-C*07:02; experiment: as above; settings: source organism: Escherichia coli O157:H7 str. EDL933
[12] = target: HLA-B*08:01; experiment: as above; settings: source organism: Escherichia coli O157:H7
[13] = target: HLA-A*26:01; experiment: as above; settings: source organism: Escherichia coli O157:H7
[14] = target: HLA-A*11:01; experiment: as above
[15] = target: HLA-A*02:01; experiment: as above; settings: source organism: Escherichia coli O157:H7
[16] = target: HLA-A*01:01; experiment: as above; settings: source organism: Escherichia coli O157:H7
[17] = target: HLA-B*58:01; experiment: IEDB peptide-MHC binding, purified MHC/competitive/fluorescence; filed as Kd, often an IC50 or EC50 that approximates it; ≥ and ≤ were set here for values at or beyond the usual limits of such assays
[18] = target: HLA-B*15:01; experiment: IEDB peptide-MHC binding, purified MHC/competitive/fluorescence; ≥ and ≤ were set here for values at or beyond the usual limits of such assays
[19] = target: HLA-B*07:02; experiment: as above
[20] = target: HLA-A*02:01; experiment: as above
[21] = target: HLA-A*03:01; experiment: IEDB peptide-MHC binding, purified MHC/competitive/fluorescence; filed as Kd, often an IC50 or EC50 that approximates it; ≥ and ≤ were set here for values at or beyond the usual limits of such assays; settings: source organism: Escherichia coli 101-1
[22] = target: HLA-A*31:01; experiment: as above
[23] = target: HLA-B*15:42; experiment: as above
[24] = target: HLA-B*45:06; experiment: as above
[25] = target: HLA-B*83:01; experiment: as above
[26] = target: HLA-A*24:02; experiment: IEDB peptide-MHC binding, purified MHC/competitive/fluorescence; ≥ and ≤ were set here for values at or beyond the usual limits of such assays
[27] = target: HLA-B*15:01; experiment: IEDB peptide-MHC binding, purified MHC/competitive/fluorescence; filed as Kd, often an IC50 or EC50 that approximates it; ≥ and ≤ were set here for values at or beyond the usual limits of such assays; settings: source organism: Shigella boydii CDC 3083-94
[28] = target: HLA-A*01:01; experiment: as above; settings: source organism: Shigella boydii CDC 3083-94
[29] = target: HLA-C*14:02; experiment: IEDB peptide-MHC binding, purified MHC/direct/fluorescence; filed as Kd, often an IC50 or EC50 that approximates it; ≥ and ≤ were set here for values at or beyond the usual limits of such assays; settings: source organism: Burkholderia vietnamiensis G4
[30] = target: HLA-C*15:02; experiment: as above; settings: source organism: Burkholderia vietnamiensis G4
[31] = target: HLA-B*18:01; experiment: as above; settings: source organism: Bordetella avium
[32] = target: HLA-B*46:01; experiment: IEDB peptide-MHC binding, purified MHC/competitive/fluorescence; filed as Kd, often an IC50 or EC50 that approximates it; ≥ and ≤ were set here for values at or beyond the usual limits of such assays; settings: source organism: Burkholderia vietnamiensis G4
[33] = target: HLA-B*15:03; experiment: IEDB peptide-MHC binding, purified MHC/competitive/radioactivity; filed as Kd, often an IC50 or EC50 that approximates it; ≥ and ≤ were set here for values at or beyond the usual limits of such assays; settings: source organism: Vaccinia virus WR
[34] = target: HLA-B*51:01; experiment: IEDB peptide-MHC binding, purified MHC/direct/fluorescence; filed as Kd, often an IC50 or EC50 that approximates it; ≥ and ≤ were set here for values at or beyond the usual limits of such assays; settings: source organism: Helicobacter pylori
[35] = target: HLA-C*04:01; experiment: IEDB peptide-MHC binding, purified MHC/competitive/fluorescence; filed as Kd, often an IC50 or EC50 that approximates it; ≥ and ≤ were set here for values at or beyond the usual limits of such assays; settings: source organism: Helicobacter pylori 26695
[36] = source organism: Escherichia coli O157:H7
[37] = source organism: Zaire ebolavirus
[38] = source organism: Rickettsia typhi
[39] = source organism: Rickettsia typhi str. Wilmington
[40] = source organism: dengue virus type 4
[41] = source organism: Burkholderia vietnamiensis G4
[42] = source organism: Vaccinia virus
[43] = source organism: Helicobacter pylori 26695
[44] = source organism: Sudan ebolavirus
[45] = source organism: Burkholderia mallei

Kd [1]: 120 nM | Kd [2, 36]: ≥ 20000 nM | Kd [3]: ≥ 20 µM | Kd ([4]; source organism: Escherichia coli O157:H7 str. EDL933): 22 nM | Kd [5]: ≥ 20 µM | Kd [6]: ≥ 20 µM | Kd [7]: ≥ 20 µM | Kd [8]: ≥ 20 µM | Kd [9, 36]: ≥ 20000 nM | Kd [10]: ≥ 20 µM | Kd [11]: 41 nM | Kd [12]: 1900 nM | Kd [13]: ≥ 20 µM | Kd [14, 36]: ≥ 20000 nM | Kd [15]: ≥ 20 µM | Kd [16]: ≥ 20 µM
Sequence: RRNDVARIF

Sequence: RSSKLVMRY
Kd ([17]; source organism: Yersinia pestis Nepal516): 18.3 nM

Sequence: LLQRWGGTC
IC50 [18, 37]: 41.3 µM | IC50 [19, 37]: ≥ 473 µM | IC50 [20, 37]: 2490 nM

Kd [21]: 4.5 µM | Kd ([22]; source organism: Escherichia coli 101-1): 3.3 nM
Sequence: GTKAWVMNR

Sequence: LTIPTIMGR
Kd [2, 38]: 930 nM | Kd [14, 38]: 3 nM | Kd [23, 39]: ≥ 5 µM | Kd [24, 39]: ≥ 5 µM | Kd [22, 39]: 2.55 nM | Kd [25, 39]: ≥ 5 µM

Sequence: RPVVLTGGT
IC50 ([26]; source organism: Variola virus): 0.104 µM | IC50 ([19]; source organism: Variola virus): 24.1 µM | IC50 ([20]; source organism: Variola virus): ≥ 89900 nM

Sequence: HSETVIHRY
Kd [27]: 3000 nM | Kd ([17]; source organism: Shigella boydii CDC 3083-94): ≥ 20000 nM | Kd [28]: 14.4 nM

Sequence: RRVRRRVLV
Kd ([4]; source organism: human gammaherpesvirus 4): 316 nM

Sequence: VVTLIPLCR
Kd [14, 40]: 454 nM | Kd [22, 40]: 30.1 nM

Kd ([17]; source organism: Escherichia coli): ≥ 20000 nM
Sequence: KGIHPQNHL

Sequence: WMRWGGWPF
Kd [29]: 4.72 µM | Kd [30]: ≥ 20 µM | Kd [4, 41]: ≥ 20000 nM | Kd ([9]; source organism: Bordetella avium): 512 nM | Kd [31]: 4.66 µM | Kd [23, 41]: ≥ 5 µM | Kd [24, 41]: ≥ 5 µM | Kd [32]: 418 nM | Kd [25, 41]: ≥ 5 µM

Sequence: FANPLSNPF
Kd [33]: 1.92 nM | IC50 [18, 42]: 5.74 µM | IC50 [26, 42]: 2.78 µM | IC50 [19, 42]: 69.1 µM | IC50 [20, 42]: 2530 nM

Sequence: FPIQDFPII
Kd [34]: 156 nM | Kd [35]: ≥ 5 µM | Kd [23, 43]: ≥ 5 µM | Kd [24, 43]: ≥ 5 µM | Kd [25, 43]: 2.74 µM

Sequence: FQKAFSMPL
IC50 [18, 44]: 2.11 µM | IC50 [26, 44]: 27.5 µM | IC50 [19, 44]: 16 µM | IC50 [20, 44]: 784 nM

Sequence: ARLLNLSGV
IC50 [26, 37]: 32.8 µM | IC50 [19, 37]: ≥ 152 µM | IC50 [20, 37]: 9980 nM

Sequence: LTQRRTTPR
Kd [2, 45]: 1860 nM | Kd [14, 45]: 52.6 nM | Kd ([22]; source organism: Burkholderia mallei FMH): 13.1 nM

Kd ([17]; source organism: Escherichia coli O139:H28 str. E24377A): 879 nM
Sequence: LKASGRYQW
